Test results from patent US9011842.

Test system: T1, 33-mer peptide fragment of α-gliadin, LQLQPFPQPQLPYPQPQLPYPQPQLPYPQPQPF (SEQ ID NO:1)
T1 sequence: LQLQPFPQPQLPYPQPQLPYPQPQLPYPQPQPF

Aorsin A
degradation of the 33-mer peptide (ELISA of intact 33-mer), 240 min, pH 4.0: Incubation with either Aorsin A or B for about 240 minutes resulted in complete degradation of the 33-mer peptide | hydrolysis of the 33-mer peptide (HPLC-MS), citrate buffer pH 4.0: When incubated with the 33-mer peptide in acidic conditions (pH≈4.0), Aorsin A hydrolyzed the 33-mer

Aorsin B
degradation of the 33-mer peptide (ELISA of intact 33-mer), 240 min, pH 4.0: Incubation with either Aorsin A or B for about 240 minutes resulted in complete degradation of the 33-mer peptide | hydrolysis of the 33-mer peptide (HPLC-MS), citrate buffer pH 4.0: when incubated with the 33-mer peptide in acidic conditions (pH≈4.0), Aorsin B hydrolyzed the 33-mer

Aspergillus niger prolyl endopeptidase
hydrolysis of the 33-mer peptide (HPLC-MS and ELISA), pH 5.0: CPY, MX-PEP, and AN-PEP hydrolyze the 33-mer peptide. AN-PEP appears to have the strongest activity against the 33-mer peptide, followed by CPY and then MX-PEP

Myxococcus xanthus prolyl endopeptidase
hydrolysis of the 33-mer peptide (HPLC-MS and ELISA), SIF pH 6.8: CPY, MX-PEP, and AN-PEP hydrolyze the 33-mer peptide. AN-PEP appears to have the strongest activity against the 33-mer peptide, followed by CPY and then MX-PEP | hydrolysis of the 33-mer peptide (HPLC-MS), 4 hours, buffer pH 4.0 to 7.0: MX-PEP did not hydrolyze the 33-mer peptide at an acidic pH

Neutral protease I
degradation of the 33-mer peptide (ELISA of intact 33-mer), 0.1 mg/ml enzyme, SIF pH 6.8: NP I and NP II each exhibited a limited ability to degrade the 33-mer peptide | percent of the 33-mer peptide degraded (ELISA), 60 min, SIF pH 6.8: NP I alone degraded about 40% of the 33-mer peptide

chymotrypsin
digestion of the 33-mer peptide (HPLC-MS), in vitro gastrointestinal model, digestive enzymes only: The digestive enzymes only (pepsin, trypsin, and chymotrypsin) failed to digest the 33-mer peptide

pepsin
digestion of the 33-mer peptide (HPLC-MS), in vitro gastrointestinal model, digestive enzymes only: The digestive enzymes only (pepsin, trypsin, and chymotrypsin) failed to digest the 33-mer peptide | hydrolysis of the 33-mer peptide (HPLC-MS), 15 hours, SGF pH 2.0: At gastric conditions (pH≈2.0), pepsin did not hydrolyze most of the 33-mer peptide

trypsin
digestion of the 33-mer peptide (HPLC-MS), in vitro gastrointestinal model, digestive enzymes only: The digestive enzymes only (pepsin, trypsin, and chymotrypsin) failed to digest the 33-mer peptide
